The assay deals with α-synuclein 1-140 (UniProt P37840). As to the kind of experiment: membrane pelleting, Western blot of dimers/trimers. As to conditions: reference: WT (unphosphorylated) α-synuclein; sites S129.

Regarding “α-synuclein 1-140 (from UniProt P37840) pS129 α-synuclein”, the “other: oligomer/monomer ratio” value was “stronger; reference 0.22 ± 0.07”.

These data come from PMC10881165.
